The source of these data is article PMC5642512.

Assay [1] has as its target Nur77 (UniProt P22736). In words: co-IP of transfected tagged proteins. Particulars: reference: wild-type Flag-Bcl-2.
Assay [2] deals with Nur77 (UniProt P22736). In words: co-IP anti-Flag (Nur77), anti-Myc (Bcl-2) blot. Particulars: reference: wild-type Myc-Bcl-2; sites S87.

On to “Bcl-2 (from UniProt P10415) Flag-Bcl-2/T56A”, for which, in assay [1] (sites T56), the “binding against the reference” value is “weaker”. In the case of “Bcl-2 (from UniProt P10415) Myc-Bcl-2/S87A”, the “binding against the reference” value in assay [2] was “lost”.

As to “Bcl-2 (from UniProt P10415) Flag-Bcl-2/S87A”, in assay [1] (sites S87), the “binding against the reference” value is given as “weaker”.
